Tests used:
[1] = target: SLPI binding sites on HuT78 cells (human T cell line) (human); assay: 125I-SLPI saturation binding, intact HuT78 cells, *SLPI at 640 pM
[2] = target: SLPI binding sites on U937 cells (human monocyte cell line; intact cells, PMA-induced cells or plasma membranes) (human); assay: competition with 125I-SLPI, intact U937 cells, competitor at 2.6 nM
[3] = target: SLPI binding sites on U937 cells (human monocyte cell line; intact cells, PMA-induced cells or plasma membranes) (human); assay: 125I-SLPI saturation binding, U937 cells minus PMA, *SLPI at 10,240 pM
[4] = target: SLPI binding sites on U937 cells (human monocyte cell line; intact cells, PMA-induced cells or plasma membranes) (human); assay: competition with 125I-SLPI, intact U937 cells, competitor at 0.80 nM
[5] = target: SLPI binding sites on HuT78 cells (human T cell line) (human); assay: competition with 125I-SLPI, intact HuT78 cells, cold SLPI at 0.024 nM
[6] = target: SLPI binding sites on HuT78 cells (human T cell line) (human); assay: 125I-SLPI saturation binding, intact HuT78 cells, *SLPI at 160 pM
[7] = target: SLPI binding sites on U937 cells (human monocyte cell line; intact cells, PMA-induced cells or plasma membranes) (human); assay: competition with 125I-SLPI, U937 plasma membranes, competitor at 0.800 nM
[8] = target: SLPI binding sites on U937 cells (human monocyte cell line; intact cells, PMA-induced cells or plasma membranes) (human); assay: 125I-SLPI saturation binding, intact U937 cells, *SLPI at 10,240 pM
[9] = target: SLPI binding sites on U937 cells (human monocyte cell line; intact cells, PMA-induced cells or plasma membranes) (human); assay: competition with 125I-SLPI, U937 plasma membranes, competitor at 8.20 nM
[10] = target: SLPI binding sites on HuT78 cells (human T cell line) (human); assay: competition with 125I-SLPI, intact HuT78 cells, competitor at 0.80 nM
[11] = target: SLPI binding sites on U937 cells (human monocyte cell line; intact cells, PMA-induced cells or plasma membranes) (human); assay: competition with 125I-SLPI, intact U937 cells, competitor at 0.25 nM
[12] = target: SLPI binding sites on U937 cells (human monocyte cell line; intact cells, PMA-induced cells or plasma membranes) (human); assay: competition with 125I-SLPI, U937 plasma membranes, Kd by Cheng-Prusoff
[13] = target: SLPI binding sites on U937 cells (human monocyte cell line; intact cells, PMA-induced cells or plasma membranes) (human); assay: 125I-SLPI saturation binding, U937 cells plus PMA, *SLPI at 1,280 pM
[14] = target: SLPI binding sites on U937 cells (human monocyte cell line; intact cells, PMA-induced cells or plasma membranes) (human); assay: competition with 125I-SLPI, intact U937 cells, cold SLPI at 0.024 nM
[15] = target: SLPI binding sites on HuT78 cells (human T cell line) (human); assay: 125I-SLPI saturation binding, intact HuT78 cells, *SLPI at 10,240 pM
[16] = target: SLPI binding sites on HuT78 cells (human T cell line) (human); assay: 125I-SLPI saturation binding, intact HuT78 cells, *SLPI at 5120 pM
[17] = target: SLPI binding sites on U937 cells (human monocyte cell line; intact cells, PMA-induced cells or plasma membranes) (human); assay: competition with 125I-SLPI, intact U937 cells, cold SLPI at 270 nM
[18] = target: SLPI binding sites on HuT78 cells (human T cell line) (human); assay: competition with 125I-SLPI, intact HuT78 cells, competitor at 0 nM
[19] = target: SLPI binding sites on HuT78 cells (human T cell line) (human); assay: 125I-SLPI saturation binding, intact HuT78 cells, *SLPI at 1280 pM
[20] = target: SLPI binding sites on U937 cells (human monocyte cell line; intact cells, PMA-induced cells or plasma membranes) (human); assay: competition with 125I-SLPI, intact U937 cells, competitor at 0.078 nM
[21] = target: SLPI binding sites on U937 cells (human monocyte cell line; intact cells, PMA-induced cells or plasma membranes) (human); assay: competition with 125I-SLPI, U937 plasma membranes, competitor at 2.56 nM
[22] = target: SLPI binding sites on U937 cells (human monocyte cell line; intact cells, PMA-induced cells or plasma membranes) (human); assay: competition with 125I-SLPI, intact U937 cells, competitor at 26 nM
[23] = target: SLPI binding sites on HuT78 cells (human T cell line) (human); assay: competition with 125I-SLPI, intact HuT78 cells, cold SLPI at 26 nM
[24] = target: SLPI binding sites on U937 cells (human monocyte cell line; intact cells, PMA-induced cells or plasma membranes) (human); assay: competition with 125I-SLPI, intact U937 cells, cold SLPI at 2.6 nM
[25] = target: SLPI binding sites on U937 cells (human monocyte cell line; intact cells, PMA-induced cells or plasma membranes) (human); assay: 125I-SLPI saturation binding, intact U937 cells, *SLPI at 80 pM
[26] = target: SLPI binding sites on U937 cells (human monocyte cell line; intact cells, PMA-induced cells or plasma membranes) (human); assay: competition with 125I-SLPI, intact U937 cells, competitor at 84 nM

serine leukocyte protease inhibitor (SLPI), sequence (P03973 26-132): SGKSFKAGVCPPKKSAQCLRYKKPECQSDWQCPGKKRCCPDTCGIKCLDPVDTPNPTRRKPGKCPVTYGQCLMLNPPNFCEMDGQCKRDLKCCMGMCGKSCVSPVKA

bound pM [1]: 2.53 pM
bound per free [1]: 0.0039
sites bound per cell (sites per cell) [1]: 152
specific cpm [1]: 101 cpm
% *SLPI BOUND [2]: 46%
bound *SLPI (pM) [3]: 844 pM
bound per free [3]: 0.09
sites bound per cell (sites per cell) [3]: 50800
specific cpm [3]: 9020 cpm
% *SLPI BOUND [4]: 78%
% *SLPI BOUND [5]: 88%
bound pM [6]: 0.93 pM
bound per free [6]: 0.0058
sites bound per cell (sites per cell) [6]: 56
specific cpm [6]: 37 cpm
CPM *SLPI BOUND [7]: 14800 cpm
bound *SLPI (pM) [8]: 463 pM
bound per free [8]: 0.047
sites bound per cell (sites per cell) [8]: 27900
specific cpm [8]: 18500 cpm
CPM *SLPI BOUND [9]: 5710 cpm
% *SLPI BOUND [10]: 79%
% *SLPI BOUND [11]: 106%
Kd [12]: 2 nM
bound pM [13]: 130 pM
bound per free [13]: 0.113
sites bound per cell (sites per cell) [13]: 7830
specific cpm [13]: 1390 cpm
% *SLPI BOUND [14]: 100%
bound pM [15]: 32.7 pM
bound per free [15]: 0.0032
sites bound per cell (sites per cell) [15]: 1970
specific cpm [15]: 1300 cpm
bound pM [16]: 13.5 pM
bound per free [16]: 0.0026
sites bound per cell (sites per cell) [16]: 813
specific cpm [16]: 538 cpm
% *SLPI BOUND [17]: 0%
% *SLPI BOUND [18]: 100%
bound pM [19]: 7.6 pM
bound per free [19]: 0.0059
sites bound per cell (sites per cell) [19]: 458
specific cpm [19]: 303 cpm
% *SLPI BOUND [20]: 111%
CPM *SLPI BOUND [21]: 11000 cpm
% *SLPI BOUND [22]: 11%
% *SLPI BOUND [23]: 37%
% *SLPI BOUND [24]: 55%
bound *SLPI (pM) [25]: 13.6 pM
bound per free [25]: 0.205
sites bound per cell (sites per cell) [25]: 819
specific cpm [25]: 543 cpm
% *SLPI BOUND [26]: 7%
Substance: serine leukocyte protease inhibitor (SLPI) (from UniProt P03973 26-132)
